# *1 amine or outer side, *2 acyl side, *3 side chain or, on linkers, in order; H or OH if unused. Bridges are numbered along the chain shown (N, C = ends). Primed or numbered codes have the meaning given here. Where no end group is shown, it is not given here. [ ]: non-standard residue; d: D form. 4‑Aminomethyl‑phenylacetyl = 4-aminomethyl-phenylacetyl unit, its amine closes the lactam, O=C(Cc1ccc(CN[*:1])cc1)[*:2]; 1,3‑dibromopropan‑2‑one(3) = linker giving 1,3-dithio-propan-2-one bridge -SCH2C(=O)CH2S- between Cys; 4‑Aminomethyl‑phenylacetyl″ = N-terminal cap residue, O=C(Cc1ccc(CN[*:1])cc1)[*:2]; Pipz(1-CH2CO,4-CH2CH2NH) = O=C(CN1CCN(CCN[*:1])CC1)[*:2]; Trp(6-F) = N[C@@H](Cc1c[nH]c2cc(F)ccc12)C(=O)O; 2Nal = N[C@@H](Cc1ccc2ccccc2c1)C(=O)O; AEF = NCCOc1ccc(C[C@H](N)C(=O)O)cc1; 3Pal = N[C@@H](Cc1cccnc1)C(=O)O; αMeL = CC(C)C[C@](C)(N)C(=O)O; CH2COCH2 = O=C(C[*:1])C[*:2]; dDab = NCC[C@@H](N)C(=O)O; Dab = NCC[C@H](N)C(=O)O; Ahx = NCCCCCC(=O)O; βAla = NCCC(=O)O
# T1: human IL-23R endogenously expressed on DB cells (CRL-2289) (human, UniProt Q5VWK5 24-629)
# T1 sequence (looked up): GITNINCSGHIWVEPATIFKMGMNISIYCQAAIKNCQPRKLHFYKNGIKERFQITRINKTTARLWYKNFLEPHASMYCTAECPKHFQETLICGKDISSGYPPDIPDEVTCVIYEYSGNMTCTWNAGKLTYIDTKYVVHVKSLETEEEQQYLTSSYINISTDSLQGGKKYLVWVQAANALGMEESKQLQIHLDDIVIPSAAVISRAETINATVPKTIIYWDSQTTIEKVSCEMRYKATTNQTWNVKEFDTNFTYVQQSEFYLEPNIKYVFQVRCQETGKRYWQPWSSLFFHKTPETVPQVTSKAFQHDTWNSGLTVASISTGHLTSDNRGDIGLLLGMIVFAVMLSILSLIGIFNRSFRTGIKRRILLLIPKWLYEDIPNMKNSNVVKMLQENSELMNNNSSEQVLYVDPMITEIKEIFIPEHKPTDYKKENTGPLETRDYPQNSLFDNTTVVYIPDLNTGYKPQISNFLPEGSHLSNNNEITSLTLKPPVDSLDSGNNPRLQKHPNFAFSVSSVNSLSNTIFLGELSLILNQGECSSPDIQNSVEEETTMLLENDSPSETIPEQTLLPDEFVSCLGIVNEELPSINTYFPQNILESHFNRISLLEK
# B1: Compound 85 (peptide)
# peptide: Ac-KTCWQC[AEF][2Nal][αMeL]E[dR]-NH2
# modifications: lactam 1-10; linker 3-6 via CH2COCH2
# SMILES: CC(=O)N[C@H]1CCCCNC(=O)CC[C@@H](C(=O)N[C@H](CCCNC(=N)N)C(N)=O)NC(=O)[C@](C)(CC(C)C)NC(=O)[C@H](Cc2ccc3ccccc3c2)NC(=O)[C@H](Cc2ccc(OCCN)cc2)NC(=O)[C@@H]2CSCC(=O)CSC[C@H](NC(=O)[C@H]([C@@H](C)O)NC1=O)C(=O)N[C@@H](Cc1c[nH]c3ccccc13)C(=O)N[C@@H](CCC(N)=O)C(=O)N2
# B2: Compound 108 (peptide)
# peptide: [4‑Aminomethyl‑phenylacetyl]SCWQC[AEF][2Nal][αMeL]E[dR]-OH
# modifications: lactam N-10; linker 3-6 via 1,3‑dibromopropan‑2‑one(3)
# B3: Compound 121 (peptide)
# peptide: [4‑Aminomethyl‑phenylacetyl]SCWQC[AEF][Trp(6-F)][αMeL]E[Dab][3Pal]-NH2
# modifications: lactam N-10; linker 3-6 via 1,3‑dibromopropan‑2‑one(3)
# B4: Compound 84 (peptide)
# peptide: Ac-KSCWQC[AEF][2Nal][αMeL]E[dR]-NH2
# modifications: lactam 1-10; linker 3-6 via CH2COCH2
# SMILES: CC(=O)N[C@H]1CCCCNC(=O)CC[C@@H](C(=O)N[C@H](CCCNC(=N)N)C(N)=O)NC(=O)[C@](C)(CC(C)C)NC(=O)[C@H](Cc2ccc3ccccc3c2)NC(=O)[C@H](Cc2ccc(OCCN)cc2)NC(=O)[C@@H]2CSCC(=O)CSC[C@H](NC(=O)[C@H](CO)NC1=O)C(=O)N[C@@H](Cc1c[nH]c3ccccc13)C(=O)N[C@@H](CCC(N)=O)C(=O)N2
# B5: Compound 109 (peptide)
# peptide: [4‑Aminomethyl‑phenylacetyl]SCWQC[AEF][2Nal][αMeL]E[dDab]((2-(trimethyl-2-aminoethoxy)ethoxy)propyl)-NH2
# modifications: lactam N-10; linker 3-6 via 1,3‑dibromopropan‑2‑one(3)
# B6: Compound 115 (peptide)
# peptide: [4‑Aminomethyl‑phenylacetyl]SCWQC[AEF][2Nal][αMeL]E[dQ]-NH2
# modifications: lactam N-10; linker 3-6 via 1,3‑dibromopropan‑2‑one(3)
# B7: Compound 90 (peptide)
# peptide: [Pipz(1-CH2CO,4-CH2CH2NH)]SCWQC[AEF][2Nal][αMeL]E[dR]-NH2
# modifications: lactam (positions not given here); linker 3-6 via CH2COCH2; not fully specified (bridges); printed as [(4-(2-Aminoethyl)-piperazine-1-yl)-acetyl](1c)*SC(2a)WQC(2a)[Y(2-aminoethoxy)][2-Nal][2-Me-Leu]E(1c)[{d}R]-[NH2]
# B8: Compound 119 (peptide)
# peptide: [4‑Aminomethyl‑phenylacetyl]SCWQC[AEF][2Nal][αMeL]E[βAla]-NH2
# modifications: lactam N-10; linker 3-6 via 1,3‑dibromopropan‑2‑one(3)
# B9: Compound 87 (peptide)
# peptide: [Ahx]SCWQC[AEF][2Nal][αMeL]E[dR]-NH2
# modifications: lactam (positions not given here); linker 3-6 via CH2COCH2; not fully specified (bridges); printed as [6-Aminohexanoyl](1c)*SC(2a)WQC(2a)[Y(2-aminoethoxy)][2-Nal][2-Me-Leu]E(1c)[{d}R]-[NH2]
# B10: Compound 117 (peptide)
# peptide: [4‑Aminomethyl‑phenylacetyl″]SCWQC[AEF][2Nal][αMeL]E[dH]-NH2
# modifications: lactam N-10; linker 3-6 via 1,3‑dibromopropan‑2‑one(3)
# Molecular target: T1, human IL-23R endogenously expressed on …
# Experiment: cell-based or functional assay
row,IC50 (pSTAT3),Binder
1,8.54 nM,B1
2,10.6 nM,B2
3,0.367 nM,B3
4,12.5 nM,B4
5,21.5 nM,B5
6,18.9 nM,B6
7,15.8 nM,B7
8,16.7 nM,B8
9,8.89 nM,B9
10,11.3 nM,B10
